Measured values taken from patent US20230181756A1 (Novartis, published 2023).
Substitutions are numbered along the chain they refer to. Read-outs that look alike come from different tables or passages of the source. One block for each binder: values may come before it.

Tests used:
human CCR7 [1] = target: T1, human CCR7 (human, UniProt P32248 25-378); experiment: cell-based or functional assay
T1 sequence: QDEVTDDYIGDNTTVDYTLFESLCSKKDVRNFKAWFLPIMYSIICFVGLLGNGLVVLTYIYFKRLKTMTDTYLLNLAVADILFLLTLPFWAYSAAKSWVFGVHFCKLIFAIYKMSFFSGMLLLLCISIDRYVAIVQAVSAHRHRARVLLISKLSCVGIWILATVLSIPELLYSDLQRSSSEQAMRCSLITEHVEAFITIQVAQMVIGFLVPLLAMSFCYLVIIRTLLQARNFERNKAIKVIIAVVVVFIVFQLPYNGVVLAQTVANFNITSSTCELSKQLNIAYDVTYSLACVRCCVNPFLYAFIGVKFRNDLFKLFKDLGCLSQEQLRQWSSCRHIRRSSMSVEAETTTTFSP

mouse CCR7 = target: T2, mouse CCR7 (mouse, UniProt P47774 25-378); experiment: FACS titration, CD-1 mouse CD4+ T cells
T2 construct: also called NIH3T3.mouse CCR7
T2 sequence: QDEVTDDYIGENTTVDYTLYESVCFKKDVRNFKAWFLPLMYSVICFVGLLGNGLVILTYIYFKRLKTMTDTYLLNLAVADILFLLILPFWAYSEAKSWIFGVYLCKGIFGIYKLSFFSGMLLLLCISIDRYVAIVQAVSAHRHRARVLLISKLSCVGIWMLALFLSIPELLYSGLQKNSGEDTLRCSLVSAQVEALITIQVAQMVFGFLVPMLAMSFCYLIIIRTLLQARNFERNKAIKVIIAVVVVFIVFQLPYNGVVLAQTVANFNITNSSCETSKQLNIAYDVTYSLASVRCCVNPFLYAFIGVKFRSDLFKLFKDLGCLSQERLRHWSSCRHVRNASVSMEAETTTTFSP

rat CCR7 = target: T3, rat CCR7 (rat, UniProt P47774 25-378 (mouse entry)); experiment: FACS titration, Wistar rat CD4+ T cells
T3 construct: also called NIH3T3.rat CCR7
T3 chain: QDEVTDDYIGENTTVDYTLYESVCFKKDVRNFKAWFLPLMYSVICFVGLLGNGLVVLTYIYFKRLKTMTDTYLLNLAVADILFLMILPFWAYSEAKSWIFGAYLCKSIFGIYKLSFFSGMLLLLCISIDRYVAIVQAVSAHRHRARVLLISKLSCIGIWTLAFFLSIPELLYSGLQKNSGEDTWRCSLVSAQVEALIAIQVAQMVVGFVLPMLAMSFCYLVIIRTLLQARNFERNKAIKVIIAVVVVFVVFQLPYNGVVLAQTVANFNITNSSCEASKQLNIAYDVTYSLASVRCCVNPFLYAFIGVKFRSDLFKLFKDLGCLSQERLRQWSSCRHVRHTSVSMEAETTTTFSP

cynomolgus monkey CCR7 [2] = target: T4, cynomolgus monkey CCR7 (cynomolgus monkey, UniProt P32248 25-378 (human entry)); experiment: FACS titration, cynomolgus CD4+ T cells
T4 construct: also called Cyno CCR7; NIH3T3.cyno CCR7
T4 sequence: T1 sequence with D174G

human CCR7 [3] = target: T1, human CCR7; experiment: FACS titration, human CD4+ T cells from PBMC
human CCR7 [4] = target: T1, human CCR7; experiment: FACS titration, NIH3T3 cells expressing human CCR7
CCR8 = target: T5, CCR8 (UniProt P51685 1-355, limits assumed); experiment: FACS on CHO-CCR8 cells
T5 construct: whole, on cells; also called CHO-CCR8

CXCR4 = target: T6, CXCR4 (UniProt P61073 1-352, limits assumed); experiment: FACS on HEK293-CXCR4 cells
T6 construct: whole, on cells; also called HEK293-CXCR4

CCR9 = target: T7, CCR9 (UniProt P51686 1-369, limits assumed); experiment: FACS on PF382 cells (CCR7-/CCR9+/CCR6+)
T7 construct: whole, on cells; also called PF382 cells (CCR7-/CCR9+/CCR6+)
T7 sequence (looked up): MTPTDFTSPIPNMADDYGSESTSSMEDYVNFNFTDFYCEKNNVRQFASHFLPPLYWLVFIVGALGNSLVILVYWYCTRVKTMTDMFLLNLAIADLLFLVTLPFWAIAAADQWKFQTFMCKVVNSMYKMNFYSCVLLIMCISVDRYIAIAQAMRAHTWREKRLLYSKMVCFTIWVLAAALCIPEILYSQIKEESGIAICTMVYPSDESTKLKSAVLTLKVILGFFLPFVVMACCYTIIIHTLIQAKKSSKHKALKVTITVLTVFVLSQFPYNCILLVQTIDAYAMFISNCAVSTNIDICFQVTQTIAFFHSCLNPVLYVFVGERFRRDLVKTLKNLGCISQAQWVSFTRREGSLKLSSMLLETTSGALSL

CCR6 = target: T8, CCR6 (UniProt P51684 1-374, limits assumed); experiment: FACS on PF382 cells (CCR7-/CCR9+/CCR6+)
T8 construct: whole, on cells; also called PF382 cells (CCR7-/CCR9+/CCR6+)
T8 sequence (looked up): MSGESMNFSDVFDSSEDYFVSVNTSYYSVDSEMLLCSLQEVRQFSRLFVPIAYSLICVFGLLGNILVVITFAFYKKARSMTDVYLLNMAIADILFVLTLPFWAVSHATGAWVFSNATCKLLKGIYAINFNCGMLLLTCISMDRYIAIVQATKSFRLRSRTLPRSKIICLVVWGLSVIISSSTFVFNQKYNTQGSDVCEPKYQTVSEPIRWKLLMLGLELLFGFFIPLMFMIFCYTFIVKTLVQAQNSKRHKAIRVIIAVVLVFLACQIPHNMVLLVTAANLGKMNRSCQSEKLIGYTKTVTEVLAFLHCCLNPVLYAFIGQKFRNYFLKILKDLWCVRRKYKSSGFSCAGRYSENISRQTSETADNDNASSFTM

cynomolgus monkey CCR7 [5] = target: T4, cynomolgus monkey CCR7; experiment: FACS titration, cynomolgus CD4+ T cells; remark: listed apart in the source
human CCR7 [6] = target: T1, human CCR7; experiment: ELISA on CCR7-expressing VLPs, pH 5.8 buffer
human CCR7 [7] = target: T1, human CCR7; experiment: ELISA on CCR7-expressing VLPs, pH 7.4 buffer
human CCR7 [8] = target: T1, human CCR7; experiment: FACS titration, human CD4+ T cells from PBMC; remark: listed apart in the source

T5 sequence (P51685 whole entry): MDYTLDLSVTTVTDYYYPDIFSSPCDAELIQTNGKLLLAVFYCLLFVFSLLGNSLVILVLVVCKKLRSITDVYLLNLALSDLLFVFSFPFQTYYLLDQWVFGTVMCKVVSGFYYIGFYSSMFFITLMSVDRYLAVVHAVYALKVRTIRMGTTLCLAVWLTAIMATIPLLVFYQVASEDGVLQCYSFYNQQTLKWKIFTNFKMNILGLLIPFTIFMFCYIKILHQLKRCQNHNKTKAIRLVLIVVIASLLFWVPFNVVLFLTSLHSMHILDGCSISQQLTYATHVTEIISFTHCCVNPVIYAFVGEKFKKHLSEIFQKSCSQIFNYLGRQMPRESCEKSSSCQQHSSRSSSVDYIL
T6 sequence (P61073 whole entry): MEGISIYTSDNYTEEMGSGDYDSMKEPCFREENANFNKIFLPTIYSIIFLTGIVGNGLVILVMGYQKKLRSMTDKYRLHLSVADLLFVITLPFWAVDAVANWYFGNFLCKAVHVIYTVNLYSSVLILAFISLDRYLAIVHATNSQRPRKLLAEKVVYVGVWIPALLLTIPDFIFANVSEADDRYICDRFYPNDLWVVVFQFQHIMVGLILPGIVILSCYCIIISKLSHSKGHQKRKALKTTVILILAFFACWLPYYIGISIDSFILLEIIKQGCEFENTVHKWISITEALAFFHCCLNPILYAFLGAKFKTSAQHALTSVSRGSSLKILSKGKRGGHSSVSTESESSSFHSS

B3: 506E15 non-humanized CysMab (antibody, human IgG1, kappa, V domains shown)
VH: EVMLVESGGGLVKPGGSLKLSCAASGFTFSSYAMSWIRQTPEKRLEWVATISSGGSFTYYPDSVKGRFTISRDNVKNTLYLQMSSLRSEDTAMYYCARRASTVVGTDFDVWGAGTTVTVSS
VL: DIQMTQSPSSLSASLGERVSLTCRASQDIGSSLNWLQQEPDGTIKRLIYATSSLDSGVPKRFSGSRSGSDYSLTISSLESEDFVVYYCLQYASSPPTFGGGTKLEIKR
notes: Chimeric human IgG1 kappa with CysMab cysteines and wild type Fc; also called Parental 506E15 hIgG1 CysMab; Non-humanized CysMab antibody 506E15
ADCC activity; IC50 (nM); reporter assay, JVM2 targets and Jurkat-V158 effectors (human CCR7 [1]): 0.131 nM
binding result (mouse CCR7): no binding
binding result (rat CCR7): no binding
EC50 (cynomolgus monkey CCR7 [2]): 6.6 nM
EC50 (human CCR7 [3]): 4.6 to 9.7 nM

B4: 506E15 humanized CysMab (Fc Wild Type) (antibody, V domains shown)
VH: EVQLVESGGGLVKPGGSLRLSCAASGFTFSSYAMSWIRQAPGKGLEWVATISSGGSFTYYPDSVKGRFTISRDNAKNSLYLQMNSLRAEDTAVYYCARRASTVVGTDFDVWGQGTTVTVSS
VL: DIQMTQSPSSLSASVGDRVTLTCRASQDIGSSLNWLQQKPGKAIKRLIYATSSLDSGVPSRFSGSRSGTDYTLTISSLQPEDFVVYYCLQYASSPPTFGGGTKLEIK
notes: Human IgG1 kappa with CysMab cysteines; also called Humanized CysMab antibody 506E15
ADCC activity; IC50 (nM); reporter assay, JVM2 targets and Jurkat-V158 effectors (human CCR7 [1]): 0.054 nM
binding result (CCR8): no binding (tested: 5 ug/ml)
binding result (CXCR4): no binding (tested: 5 ug/ml)
binding result (CCR9): no binding (tested: 5 ug/ml)
binding result (CCR6): no binding (tested: 5 ug/ml)
EC50 (cynomolgus monkey CCR7 [5]): 7 nM
EC50 (human CCR7 [8]): 7.8 to 11 nM
Kd (human CCR7 [6]): 0.494 nM
Kd (human CCR7 [7]): 0.0571 nM

Other lines, results leading:

ADCC activity; IC50 (nM); reporter assay, JVM2 targets and Jurkat-V158 effectors (human CCR7 [1]): 1.09 nM
binding result (mouse CCR7): no binding
binding result (rat CCR7): no binding
EC50 (cynomolgus monkey CCR7 [2]): 0.45 nM
EC50 (human CCR7 [3]): 0.39 to 1.4 nM
EC50 (human CCR7 [4]): 3.6 nM
B1: 674J13 non-humanized CysMab (antibody, human IgG1, kappa, V domains shown)
VH: DVQLQESGPDLVKPSQSLSLTCTVTGYSITSGYSWHWIRQFPGNKLEWMAHIHSSGSTNYNPSLKSRISIIRDTSKNLFFLQLNSVTTEDTATYYCARGGVQAFAYWGQGTLVTVSA
VL: QIVLTQSPAIMSASPGEKVTMTCSASSSVIYMHWYQQKSGTSPKRWIYDTSKLASGVPARFSGSGSGTSYSLTISSMEAEDAATYYCQQWSSNPLTFGAGTTLELKR
notes: Chimeric human IgG1 kappa with CysMab cysteines and wild type Fc; also called Parental 674J13 hIgG1 CysMab; Non-humanized CysMab antibody 674J13

binding result (CCR8): no binding (tested: 5 ug/ml)
binding result (CXCR4): no binding (tested: 5 ug/ml)
binding result (CCR9): no binding (tested: 5 ug/ml)
binding result (CCR6): no binding (tested: 5 ug/ml)
EC50 (cynomolgus monkey CCR7 [5]): 0.5 nM
Kd (human CCR7 [6]): 0.166 nM
Kd (human CCR7 [7]): 0.0162 nM
B2: 674J13 humanized CysMab (Fc Wild Type) (antibody, V domains shown)
VH: DVQLQESGPGLVKPSQTLSLTCTVSGYSITSGYSWHWIRQHPGKGLEWMAHIHSSGSTNYNPSLKSRITISRDTSKNQFSLKLSSVTAADTAVYYCARGGVQAFAYWGQGTLVTVSS
VL: EIVLTQSPATLSASPGERVTMSCSASSSVIYMHWYQQKPGQAPRRWIYDTSKLASGVPARFSGSGSGTDYTLTISSMEPEDAAVYYCQQWSSNPLTFGQGTKLEIK
notes: Human IgG1 kappa with CysMab cysteines; also called Humanized CysMab antibody 674J13
